# Experimental data as given in patent US20070128190A1 (GLENMARK PHARMACEUTICALS S A, published 2007).
# Substitutions are numbered along the chain they refer to. Like-named read-outs stand apart in the source and are kept apart here.
# B1: humanized TMC-2206 variant hIgG1/κ VH12.0/VL10.0Q (antibody)
# heavy: not shown
# light: DFVMTQSPAFLSVTPGEKVTITCSAQSSVNYIHWYQQKPDQAPKKLIYDTSKLASGVPSRFSGSGSGTDYTFTISSLEAEDAATYYCQQWTTNPLTFGQGTKVEIKRTVAAPSVFIFPPSDEQLKSGTASVVCLLNNFYPREAKVQWKVDNALQSGNSQESVTEQDSKDSTYSLSSTLTLSKADYEKHKVYACEVTHQGLSSPVTKSFNRGEC
# notes: hVH12.0 γ1 heavy chain and hVL10.0Q light chain; also called VH 12.0 VL 10.0Q (IgG1)
# B2: humanized TMC-2206 variant hIgG1/κ VH14.0/VL10.0Q (antibody)
# heavy: not shown
# light: B1 light
# notes: hVH14.0 γ1 heavy chain and hVL10.0Q light chain; also called VH 14.0 VL 10.0Q (IgG1)
# B3: humanized TMC-2206 variant hVH1.0/hVL1.0 (antibody, human IgG1, V domains shown)
# VH: QVQLQESGPGLVKPSETLSLTCTVSGFSLTNYGIHWVRQPPGKGLEWLGVIWARGFTNYNSALMSRLTISKDNSKNQVSLKLSSVTAADTAVYFCARANDGVYYAMDYWGQGTLVTVSS
# VL: QFVLTQSPAFLSVTPGEKVTITCSANSSVNYIHWYQQKPDQAPKKWIYDTSKLASGVPSRFSGSGSGTDYTFTISSLEAEDAATYYCQQWTTNPLTFGQGTKVEIK
# notes: human IgG1/κ constant regions; also called humanized prototype; first humanized prototype
# B4: humanized TMC-2206 variant hVH1.0/hVL9.0 (antibody, V domains shown)
# VH: B3 VH
# VL: B3 VL with Y48K
# notes: human IgG1/κ; also called change of L49 to the human lysine
# B5: humanized TMC-2206 variant hVH9.0, hVL1.0 (antibody, human IgG1, V domains shown)
# VH: B3 VH with L48I, K71V
# VL: B3 VL
# notes: human IgG1/κ constant regions
# B6: humanized TMC-2206 variant hVH10.0/hVL1.0 (antibody, V domains shown)
# VH: B3 VH with N73T
# VL: B3 VL
# notes: human IgG1/κ; also called change to Thr-H73
# B7: humanized TMC-2206 variant hVH11.0, hVL1.0 (antibody, human IgG1, V domains shown)
# VH: B3 VH with L48I, V78F
# VL: B3 VL
# notes: human IgG1/κ constant regions
# B8: humanized TMC-2206 variant hIgG4/κ VH14.0/VL10.0Q (antibody)
# heavy: not shown
# light: B1 light
# notes: hVH14.0 γ4 heavy chain and hVL10.0Q light chain
# B9: GST-hα2 I domain A114Q (other)
# chain: GSSPDFQLSASFSPATQPCPSLIDVVVVCDESNSIYPWDAVKNFLEKFVQGLDIGPTKTQVGLIQYANNPRVVFNLNTYKTKEEMIVATSQTSQYGGDLTNTFGAIQYARKYAYSQASGGRRSATKVMVVVTDGESHDGSMLKAVIDQCNHDNILRFGIAVLGYLNRNALDTKNLIKEIKAIASIPTERYFFNVSDEAALLEKAGTLGEQIFSIEGTVEFIVTD
# notes: same construct as m41; not shown: GST carrier with the pGEX-2TK vector linker at the N end
# B10: GST-hα2 I domain E195W (other)
# chain: B9 chain with Q116A, E197W
# notes: same construct as m41; reported to lock the I domain in the open conformation; not shown: GST carrier with the pGEX-2TK vector linker at the N end
# B11: GST-hα2 I domain N73D (other)
# chain: B9 chain with N75D, Q116A
# notes: as for B9
# B12: GST-hα2 I domain Q89H (other)
# chain: B9 chain with Q91H, Q116A
# notes: as for B9
# B13: GST-hα2 I domain R165D (other)
# chain: B9 chain with Q116A, R167D
# notes: as for B9
# B14: GST-cynomolgus α2 I domain fusion protein of Example 18 (sequence identical to the human I domain) (other)
# chain: SPDFQLSASFSPATQPCPSLIDVVVVCDESNSIYPWDAVKNFLEKFVQGLDIGPTKTQVGLIQYANNPRVVFNLNTYKTKEEMIVATSQTSQYGGDLTNTFGAIQYARKYAYSAASGGRRSATKVMVVVTDGESHDGSMLKAVIDQCNHDNILRFGIAVLGYLNRNALDTKNLIKEIKAIASIPTERYFFNVSDEAALLEKAGTLGEQIFSIEGTV
# notes: also called GST-cynomolgous-α2 I domain fusion protein; not shown: glutathione S-transferase tag, vector not restated
# Experiments:
# [1] = target: T1, human platelet α2β1 integrin (immobilized on microtiter plates) (human, UniProt P17301 30-1181; P05556 21-798); assay: competition with Eu-TMC-2206 on human platelet α2β1-coated plate
# T1 construct: plates custom-coated with human platelet α2β1 by GTI Inc; also called immobilized α2β1 integrin; α2β1-coated plates
# Protocol: Exemplary IgG1 antibodies have a hVH 14.0 γ heavy chain (SEQ ID NO:181) or a hVH12.0 γ1 heavy chain (SEQ ID NO:182) and a hVL10.0Q light chain (SEQ ID NO:178). Exemplary IgG4 antibodies have a hVH14.0 γ4 heavy chain (SEQ ID NO:174) or a hVH12.0 γ4 heavy chain (SEQ ID NO:176) and a hVL 10.0Q light chain (SEQ ID NO:178). Purified antibodies were tested in the competition assay to compare potency by Kᵢ values as well as in the cell adhesion to collagen assay, where potency is measured as EC₅₀ values.
# [2] = target: T2, human α2 integrin with endogenous hamster β1 on CHO cells (human; hamster); assay: cell-based or functional assay
# [3] = target: T1, human platelet α2β1 integrin …; assay: competition with Eu-TMC-2206 on human platelet α2β1-coated plate; remark: listed apart in the source
# Protocol: (§1) Each labeled antibody mixture was applied to a separate PD-10 column (GE Biosciences, Piscataway, N.J.) pre-equilibrated with Running Buffer (50 mM Tris, pH 7.4 and 138 mM NaCl). Fractions (0.5 mL) were collected and assayed for total protein (Bradford reagent; Bio-Rad Laboratories, Hercules, Calif.) using a SpectraMax 384 absorbance plate reader and for europium after 1:10.000 dilution in DELFIA Enhancement Solution (Perkin-Elmer) by time-resolved fluorescence (TRF) using a Victor2 multi-label plate reader (Perkin Elmer). The fractions that were positive for both protein and Eu label were pooled and applied to new PD-10 columns and samples collected and assayed for total protein and for europium content by TRF calibrated against a europium standard solution (Perkin-Elmer) to calculate the fluor: protein ratio. […] After incubating the sealed plates for 1 hr at 37° C. to allow binding to reach equilibrium, 2 μL samples were transferred from each well into a fresh well containing DELFIA Enhancement Solution (100 μL/well; Perkin-Elmer) for the measurement of free (unbound) label. Enhancement Solution (100 μL/well) was added to the emptied wells for the measurement of bound label. The plate was shaken (Titer Plate Shaker speed setting of 5 for 5 minutes at room temperature) and time-resolved fluorescent (TRF) intensities were read using a Victor2 multi-label plate reader (Perkin-Elmer Wallac, Boston, Mas.).
# [4] = target: T1, human platelet α2β1 integrin …; assay: as above; remark: listed apart in the source
# [5] = target: T1, human platelet α2β1 integrin …; assay: as above; remark: listed apart in the source
# Protocol: as §1
# [6] = target: T2, human α2 integrin with endogenous …; assay: cell-based or functional assay; remark: listed apart in the source
# TMC-2206 [7] = target: T3, TMC-2206; assay: fusion protein competing Eu-TMC-2206 off α2β1-coated plate
# T3 construct: murine IgG1/κ secreted by hybridoma BHA2.1; labelled with Eu-N1-ITC where used as tracer; also called BHA2.1
# Protocol: Wells in a 96 well microtiter plate were coated with platelet α2β1-integrin (custom-coated with human platelet α2β1 by GTI Inc., Wis.) and then blocked with nonfat milk. […] After concentration in prewashed MicroSep concentrators (30-kDa cutoff; Pall Life Sciences at 9500 rpm (7000×g) in a JA-20 rotor (Beckman Instruments, Inc.) for 20 minutes at 4° C.), antibodies were adjusted to 4.0 mg/mL with PBS containing a final concentration of 100 mM NaHCO₃, pH 9.3. The mAb/bicarbonate mixture (0.250 mL) was gently mixed into a vial containing 0.2 mg N¹-(p-isothiocyanatobenzyl)-diethylenetriamine-N¹,N²,N³N³-tetraacetic acid chelated with Eu³⁺ (Eu-N1-ITC; Perkin Elmer Life Sciences) and reacted overnight at 4° C. without stirring. Each labeled antibody mixture was applied to a separate PD-10 column (GE Biosciences, Piscataway, N.J.) pre-equilibrated with Running Buffer (50 mM Tris, pH 7.4 and 138 mM NaCl). Fractions (0.5 mL) were collected and assayed for total protein (Bradford reagent; Bio-Rad Laboratories, Hercules, Calif.) using a SpectraMax 384 absorbance plate reader and for europium after 1:10.000 dilution in DELFIA Enhancement Solution (Perkin-Elmer) by time-resolved fluorescence (TRF) using a Victor2 multi-label plate reader (Perkin Elmer). The fractions that were positive for both protein and Eu label were pooled and applied to new PD-10 columns and samples collected and assayed for total protein and for europium content by TRF calibrated against a europium standard solution (Perkin-Elmer) to calculate the fluor: protein ratio.
# TMC-2206 [8] = target: T3, TMC-2206; assay: ELISA, GST fusion protein on immobilized TMC-2206 (Kd apparent)
# Protocol: The fusion proteins were then expressed and purified as described above for the human GST-α2 I domain fusion protein. […] Therefore, these and the primate fusion proteins were further purified by size exclusion chromatography on a Sephadex 75 10/30 (GE-Amersham) column (primate) by FPLC on an Akta-Basic FPLC system (GE-Amersham) to yield a monomeric fraction. […] The Kᵢ assays were performed as described above in Example 2. […] Plates were sealed and coating occurred overnight at 4° C. The next morning, the plates were washed twice with TBS solution and then blocked using 200 μL of the blocking solution described above for 1 hour at room temperature with shaking. After blocking, the blocking solution was removed but the wells were not washed. Instead, a serial dilution of GST fusion protein was made, added to the wells and then incubated for 2 hours at room temperature with shaking. The wells were then aspirated and a TBS washing buffer applied for 5 minutes at room temperature. The washing step was repeated twice more before the secondary antibody was applied. The secondary antibody step consisted of Amersham's HRP-conjugated rabbit anti-GST antibody diluted 1:2000 in blocking buffer. One hundred μL of secondary antibody was added to each well and incubated at room temperature for 1.5 hours with shaking. The wells were again aspirated and washed three times with wash buffer before adding the substrate reaction mixture. One hundred μL of substrate reaction mixture (1:1 dilution of TMB kit) was then added to each well for 6 minutes. The reaction was stopped by adding 100 μL of 0.1M H₂SO₄. The reaction within the wells was then read and quantified by spectrophotometric absorption using the Molecular Dynamics plate reader and associated Softmax software, respectively. Kd values were then estimated from the EC₅₀ values using Prism software (Graphpad, Calif.).
# TMC-2206 [9] = target: T3, TMC-2206; assay: fusion protein competing Eu-TMC-2206 off α2β1-coated plate; remark: listed apart in the source
# TMC-2206 [10] = target: T3, TMC-2206; assay: as above; remark: listed apart in the source
# [11] = target: T4, Humanized TMC-2206 (hIgG4/κ VH12.0/VL10.0Q); assay: fusion protein competing Eu-humanized TMC-2206 off α2β1-coated plates
# T4 construct: labelled with Eu or Alexa-488 in some assays
# From the text: The inhibition curves were fitted with the “one site competition” model using Prism software (GraphPad, Inc.) to obtain IC₅₀ values and to calculate the Kᵢ using the equation of Cheng and Prusoff (1973) and the respective values for KD from above.
# The cloning of the human, rhesus macaque, rat, and mouse α2 I domains were described in Example 12. Cynomolgus and additional rhesus monkey α2 I domains were cloned from cDNA derived from total RNA extracted from skin tissue (MediCorp, Inc., Montreal, QC).
binder,measurement,setting,value
B1,Ki,[1],0.27 nM
same,"EC50 (nM), cell adhesion to collagen assay",[2],2.2 nM
same,Ki,[3],0.31 nM
B2,Ki,[1],0.24 nM
same,"EC50 (nM), cell adhesion to collagen assay",[2],1.3 nM
same,Ki,[3],0.29 nM
B3,Ki,[4],0.32 nM
same,Ki,[5],0.33 nM
same,"EC50, inhibition of cell adhesion to collagen",[6],1.5 nM
same,Ki,[3],0.27 nM
B4,fold decrease in potency as measured by Ki,[4],3.3 fold
B5,fold decrease (Ki),[4],6.4 fold
B6,fold decrease as measured by Ki,[4],1.6 fold
B7,"fold decrease in potency compared to the hVH1.0, hVL1.0 variant (Ki)",[4],70 fold
B8,Ki,[1],0.36 nM
B9,Ki,TMC-2206 [7],0.64 nM
same,Kd,TMC-2206 [8],0.19 nM
B10,fold decrease in Ki values,TMC-2206 [9],45 fold
same,Ki,TMC-2206 [10],12.8 nM
B11,fold decrease in Ki values,TMC-2206 [9],7.8 fold
same,Ki,TMC-2206 [10],2.17 nM
B12,fold decrease in Ki values,TMC-2206 [9],15.9 fold
same,Ki,TMC-2206 [10],4.46 nM
B13,Ki,TMC-2206 [10],1990 nM
B14,Ki,[11],0.47 nM
